Experimental data from the supplement of paper PMC9170038.

These sequences were tested on MS2 coat protein (assay: apparent KD of MS2 coat protein; higher = weaker reporter binding). Conditions: Eterna round: R107; input ligand: arginine 13.2 mM.
Outline: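 Designed RNA switches, transcribed on-chip from Illumina sequencing clusters, were titrated with SNAP-549-labelled MS2 coat protein from 0.7 or 1.5 nM to 3 µM in twofold steps. The solution was 100 mM Tris-HCl pH 7.5, 80 mM KCl, 4 mM MgCl2, with constant ligand or without it. Apparent KD is the median over each design's normalised cluster binding-curve fits.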

Sequence | apparent KD of MS2 coat protein [µM]
GGUGGCUCCAUCGAUACCAGCCACCACCGAUAGACCACAUGAGGAUCACCCAUGUUGGGUGGCCCUUGGCAGCGGUGAAGCUGCC [#1 Same State - Theophylline B Attempt #4 (HarryS)] | 0.0441
GACAGAAACUGAAGGAGCGAGGUAAAACGGGAUGAGCAAACAUGAGGAUCACCCAUGUGGCCUCAGGUAGGUCGCAGAAAGAAAC [Exclusion Arginine B GF24] | 0.18
GCACCAGGUACGGAUACCAGCUAUAGGCCCAAUGGGCGACAUGAGGAUCACCCAUGUGAUGGCCCUUGGCAGCUGUACCUGGUGC [SSThB NP+V+V2 #9] | 0.148
AACUAAUCACAUGAGGAUCACCCAUGUGAUACCAGCUAAUCCCAAAGCCCUUGGCAGCACCUUUGGGUCCCGGUGUGUUUGAACA [Onceesa] | 0.00942
UGGCGAGAAGGAAGGAGCGUCAGCUGAGUUACAUGAGGAUCACCCAUGUUGCACAUAGUGUGACAGGUAGGUCGCCUUCUGCCCU [SS-ArgB19] | 0.038
UUUUUUUUGGGAAGGAGCGGGAACAUGUGGAUCUCCCAUGUACAUGAGGAUCACCCAUGUACCCAGGUAGGUCGCCCAUUUUUUU [Exclusion - Arginine B] | 0.0695
ACAUGAGGAUCACCCAUGUUCCUCAUUGAUACCAGUGAAUUUAGACGCCCUUGGCAGCGAGUUUAAGAAGAAGAAGUUUUUUUUU [6.C] | 0.124
UAUAUGGUGAUGGAUACCAGCAGAGAAAACGUUUAUCCUAACAUGAGGAUCACCCAUGUAUGCCCUUGGCAGCUGUUGUUAUAUA [8.M] | 0.0267
CGUGGUGGGACGGAUACCAGCCACCGCGGCAACGCAACAUGAGGAUCACCCAUGUUGGGUGGCCCUUGGCAGCUGUGCUGCGACG [#1 Same State - Theophylline B Attempt #28 (HarryS)] | 0.0509
UAACAUGAGGAUCACCCAUGUUUGGAGAAACGAGGACCGGUACGGCCGCCACUCGAGGAGUGGAUGAGAAGUGGGAUAGAGUGAU [Same State Trp A GF6] | 0.0192
AGCAAGCAACAUGAGGAUCACCCAUGUGAAGGAGCGCCGAAUAAGGCAGGUAGGUCGCACAUGAAUAAAUCAUGUAAAAGCUUGC [MAT - Exclusion Arginine A - Mod of Eli - D23] | 0.104
AAUAACAUGAGGAUCACCCAUGUAAGUGGGCGAGGACCGGUACGGCCGCCACUCGGAUGAUGUUGACGAAAAGUCAGCAUCAUCA [#OpenEnded 2 #GuTurnoff #Tail] | 0.0259
GCCGGUACGUCGGCAAAGCCGAUGUGCCAGCGAGGACCGGUACGGCCGCCACUCGUACAUGAGGAUCACCCAUGUCCGGUCCGGC [Omei Trp SS A C v1] | 0.0267
AAUGGUGGAACGAAGUACAGGAGUACAAAUCGAGGACCGGUACGGCCGCCACUCGCGAAAGAACAUGAGGAUCACCCAUGUAAAA [theeternabot_exclusion_MS2_Trp_A_34] | 0.0121
UUUUAAAGCAUGGCGUAUCGGAAAACCGAUACCAGUACAGAAAUGUACCCUUGGCAGCGGAAUUUUACAUGAGGAUCACCCAUGU [Ex Theophylline A 1] | 0.0149
UCAUAAGUACCGGUCCUCAGAUCCUCAUGACGAGGACCGGUACGGCCGCCACUCGAAACAUGAGGAUCACCCAUGUAAUAAUACU [Brourdmod15] | 0.0225
CCGCCCUACCGCGAUACCAGUACGGCAGUUAACAUGAGGAUCACCCAUGUGCAAACAUAAUACCCUUGGCAGCGCCUGAAUCCAU [theeternabot_sameState_MS2_Theo_B_12] | 0.0157
AAUCAUGGAAACAUGACAUGAGGGUUGCUCCGAGGACCGGUACGGCCGCCACUCGCGAGGAGGCGGACAUGAGGAUCACCCAUGU [#05 Tryptophan A Same State] | 0.0403
GGAGUCGUCACGGCCGCCACUGCGGUGGUGUGACAUGAGGAUCACCCAUGUUGUCAUGCGGCCCUUAGGACCGGGUGUCGGUUCC [#1 Exclusion - Tryptophan B Attempt #23 (HarryS)] | 0.0571

Sequence | apparent KD of MS2 coat protein [µM]
UUAAUCAUAUUAGAAAACUAAUAUGCAGAAGGAGCGUGAUAAAACACAGGUAGGUCGCUGAAGGGAACAUGAGGAUCACCCAUGU [AstrosSSArgA#8] | 0.0265
CGGUCGGUCGGCCGGUGAUUAUGGGAUGAAGGAGCGUGGGAAGCUACAGGUAGGUCGCAUCCGAACCAUGAGGAUCACCCAUGGU [SSArg A #23Alt-Ms2 Mod] | 0.0232
CACAUGAGGAUCACCCAUGUCUGAACUGAAGGAGCGCUAAACAAGGCAGGUAGGUCGCGGAAUCCUGUGUGCAUAUGCACACGGG [9.W] | 0.0306
GUAUGGAAACAUACUAGGGUAUCAUGAGAUACCAGUACAGAAAUGUACCCUUGGCAGCUCAAGCAUACAUGAGGAUCACCCAUGU [Ex Theophylline A 7] | 0.015
UUAUAUAUACAUGAGGAUCACCCAUGUGAUACCAGCCUGGAAACAGGCCCUUGGCAGCACAAAUACUCCAGAAAAUAUAAUAAAU [MAT - Exclusion Theophlline A - Mod of Eli - D4] | 0.0261
ACCAACCACACCCUUCACUGUUUUCGCCGCCGAGGACCGGUACGGCCGCCACUCGUACAAAGACAUGAGGAUCACCCAUGUGCCU [theeternabot_exclusion_MS2_Trp_A_7] | 0.0148
GGAUAGGACACGGCCGCCACUAGCUAGGAUACUAGCAACAUUUCCUCACAUGAGGAUCACCCAUGUAGGACCGGGUGUCCUAUCG | 0.0799
AAAACACAUGAGGAUCACCCAUGUCGUGAUACCAGUCAACAUGAGGACCCUUGGCAGCAUAAAAUGGGUAACAUGAGGAUAACCC [AstrosEXyTheA#3] | 0.0754
GGCCUAGCGAGCGCUCGCUAGGCCGCGGAUACCAGCGAGGUCCAUCGCCCUUGGCAGCCGAACAUGAGGAUCACCCAUGUCGGUA [#1 Same State - Theophylline A Attempt #15 (HarryS)] | 0.0095
CGCAACCAACAUGAGGAUCACCCAUGUGAAGGAGCGCCGAAUAAGGCAGGUAGGUCGCACAUGAAUAAAUCAUGAAGGAAGCGAA [XArg-A 12 NuPack] | 0.0205
GAGUUGUGCUCAGGCCCGACUCGCUGAGAAGGAGCGCACUAAGGUGCAGGUAGGUCGCUCAGGAAUACAUGAGGAUCACCCAUGU [Erlaatti] | 0.0217
UUCUUUAAGUCGGCCGCCACUGAAACAUGAGGAUCACCCAUGUAAAUUUGGGAGUAGGUAUAUUACAGGACCGGGACUAUAGUAA [JR_ExcTryptoB_Sub021] | 0.0292
GCAUCCUAGUCGGCCGCCACUGCGAAUAGGUCCUGAGUGAUCUAACAUGAGGAUCACCCAUGUAGCAGGACCGGGACUAGGAUGC [(Trp1)-(TM)''-(TM)'-(Ms2)-(Trp2)_Design5] | 0.0128
CAUACUUUAGUAUGACGUGUGGGCAGUGAUACCAGAUACGAAAGUAUCCCUUGGCAGCACAACAUGAGGAUCACCCAUGUAAUUA [Theophylline A 1] | 0.0219
AGUACUCGAACGGAUACCAGCCGGACAUGAGGAUCACCCAUGUCCUACCAUUGUUCGGUUGGCCCUUGGCAGCCGUUCGUGUACA [Omei Theo B SS A v4] | 0.125
GGUGACUGCAUGUGGAAUUAAGGUAGGGAAGGAGCGCGGUAAGACGCAGGUAGGUCGCCCUACAUGAGGAUCACCCAUGUGGUGU [Beenmaer] | 0.114
GAGUAGAGGACGGCCGCCACUGAACAUGAGGAUCACCCAUGUCGUGAUCCGUUACCUAGGGUAGAUAGGACCGGGUCAUGUACUC [Exclusion Tryptophan B GF 18] | 0.0372
AGCCACUCGAGUGAUCCUCACGAGUGGCUACGAGGACCGGUACGGCCGCCACUCGAAUUAACAUGAGGAUCACCCAUGUAAUCUC [Brourdmod06] | 0.0387
UCGCUCUGGGUGGGAUCCGGAGAUGUGGAAGGAGCGCUGGAAACAGCAGGUAGGUCGCCAACGGACAUGAGGAUCACCCAUGUAC [Same State - Arginine A (Freestyle 18)] | 0.0649
